According to paper PMC8326762, “A Small Molecule Inhibitor of Pex3–Pex19 Interaction Disrupts Glycosome Biogenesis and Causes Lethality in Trypanosoma brucei” (Frontiers in Cell and Developmental Biology, 2021):

What was measured:
TbPex3 = biological target: T1, TbPex3 (Trypanosoma brucei, UniProt Q383Q3); assay: pull-down and MST with purified MBP-TbPex3 and NT-647-labeled His-TbPex19; inhibition of protein-protein interaction; format: binding
T1 construct: gene Tb11.01.2020; MBP fusion to TbPex3 (with 6 × His-TbPex19), recombinant from E. coli; with TbPex19

His-HsPex19 (human) [1] = biological target: His-HsPex19 (human) (UniProt P40855); assay: MST; Monolith NT.115; MBP-Pex3 (0–2.5 μM) titrated into 100 nM NT-647-labeled His-Pex19; 50 mM Tris–HCl, pH 7.4, 150 mM NaCl, 10 mM MgCl2, 0.05% Tween-20
Chain of His-HsPex19 (human) (P40855 whole entry): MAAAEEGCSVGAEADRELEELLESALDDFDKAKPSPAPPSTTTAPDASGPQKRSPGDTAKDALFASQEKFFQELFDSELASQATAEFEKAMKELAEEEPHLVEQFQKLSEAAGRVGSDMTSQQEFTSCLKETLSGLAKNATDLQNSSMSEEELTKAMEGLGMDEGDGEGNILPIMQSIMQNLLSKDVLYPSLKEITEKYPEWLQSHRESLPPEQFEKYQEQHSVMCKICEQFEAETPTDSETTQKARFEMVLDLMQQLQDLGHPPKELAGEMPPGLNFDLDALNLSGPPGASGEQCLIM

His-HsPex19 (human) [2] = biological target: His-HsPex19 (human) (UniProt P40855); assay: MST; Monolith NT.115; 100 nM each of NT-647-labeled His-Pex19 and MBP-Pex3 with DMNQ titrated from 3 nM to 100 μM; apparent
His-TbPex19 (T. brucei) [3] = assay: MST; Monolith NT.115; MBP-Pex3 (0–2.5 μM) titrated into 100 nM NT-647-labeled His-Pex19; 50 mM Tris–HCl, pH 7.4, 150 mM NaCl, 10 mM MgCl2, 0.05% Tween-20
His-TbPex19 (T. brucei) [4] = assay: MST; Monolith NT.115; 100 nM each of NT-647-labeled His-Pex19 and MBP-Pex3 with DMNQ titrated from 3 nM to 100 μM; apparent

Compound: COC1=C(OC)C(=O)c2ccccc2C1=O [2,3-dimethoxy-1,4-naphthoquinone]
- pull-down and MST with purified MBP-TbPex3 and NT-647-labeled His-TbPex19; inhib (TbPex3): 39.6 ± 0.86 µM

Compound: MBP-HsPex3 (from UniProt P56589 1-373) (natural protein)
- Kd (His-HsPex19 (human) [1]): 4.37 nM
- KD with DMNQ titrated in (His-HsPex19 (human) [2]): 14.5 nM

Compound: MBP-TbPex3 (natural protein)
- Kd (His-TbPex19 (T. brucei) [3]): 3.8 nM
- apparent KD with DMNQ titrated in (His-TbPex19 (T. brucei) [4]): 39600 nM
